Substrate: Nc1ncnc2c1ncn2[C@@H]1O[C@H](COP(=O)(O)OP(=O)(O)OP(=O)(O)O)[C@@H](O)[C@H]1O
Assay: cAMP direct immunoassay, colorimetric
Type: biochemical, Trichomonas vaginalis
Settings: 4 µg GST-fusion protein; 0.2 mM GTP present in cAMP assay

Protein	Km [µM]
group A cyclase (TVAG_456550), Trichomonas TMAC cyclase domain (Trichomonas vaginalis G3) (protein) TILFLDVVEFTPWCGSHDAQYVMRMLNIMFKEFDVITNAHKTMTKIKCIGDCYMAAGGIFDEVNQPPVHAKEVVDFGCKVIKKLLEIDEQENEKLRIRVGINTGGPIVAGVIGTEKPTFEILGPAINIAHEME	520 ± 10
group B cyclase (TVAG_013980), Trichomonas TMAC cyclase domain (Trichomonas vaginalis G3) (protein) TIFFVDIVKFSNYAAALSPSEIMSNLSLVFSTFDKIVVKYPTILKIKLIGDVYMAAAGIFSDPQMNPSKPAEESVNCCLDIQKVMEQINVKLSAGLEVRIGVNTGGPLIGGVLGTDKPTFDIIGDPINVASRLQ	710 ± 10
